# In patent US20160046944, “APTAMER TO IL-17 AND USE THEREOF” (THE UNIVERSITY OF TOKYO, published 2016):
# Substitutions are numbered along the chain they refer to.
# T1: IL-17 (IL-17A) (Homo sapiens, UniProt Q16552 Q16552:24-155)
# T1 sequence: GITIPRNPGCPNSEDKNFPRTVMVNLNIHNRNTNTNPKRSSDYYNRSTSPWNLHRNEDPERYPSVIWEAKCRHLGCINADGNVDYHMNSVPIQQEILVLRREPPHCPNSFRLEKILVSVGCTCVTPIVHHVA
# B1: aptamer No. 56 (mixed)
# mixed: GGGUAGCCGGAGGAGTCAGTAAUCGGUACCC
# modifications: g(M)g(M)g(M)u(M)Ag(S)c(M)c(M)Gg(M)a(F)gg(M)a(M)g(S)Tc(F)a(F)g(S)Ta(M)a(M)u(M)c(M)g(M)g(M)u(F)a(M)CCC
# B2: aptamer No. 59 (mixed)
# mixed: B1 mixed
# modifications: g(M)g(M)g(M)u(M)Ag(S)c(M)c(M)Gg(M)a(F)gg(M)a(M)g(S)Tc(F)a(F)g(M)Ta(M)a(M)u(M)c(M)g(M)g(M)u(F)a(M)c(M)c(M)c(M)
# B3: aptamer No. 60 (mixed)
# mixed: B1 mixed
# modifications: g(M)g(M)g(M)u(M)a(M)g(S)c(M)c(M)Gg(M)a(F)gg(M)a(M)g(S)Tc(F)a(F)g(M)Ta(M)a(M)u(M)c(M)g(M)g(M)u(F)a(M)c(M)c(M)c(M)
# B4: aptamer No. 62 (mixed)
# mixed: B1 mixed
# modifications: g(M)g(M)g(M)u(M)a(M)g(S)c(M)c(M)Gg(M)a(F)gg(M)a(M)gTc(F)a(F)gTa(M)a(M)u(M)c(M)g(M)g(M)u(F)a(M)c(M)c(M)c(M)
# B5: aptamer No. 63 (mixed)
# mixed: B1 mixed
# modifications: g(M)g(M)g(M)u(M)a(M)g(S)c(M)c(M)Gg(M)a(F)gg(M)a(M)g(S)Tc(F)a(F)g(S)Ta(M)a(M)u(M)c(M)g(M)g(M)u(F)a(M)c(M)c(M)c(M)
# B6: aptamer No. 64 (mixed)
# mixed: B1 mixed
# modifications: g(M)g(M)g(M)u(M)a(M)g(S)c(M)c(M)Gg(M)a(F)gg(M)a(M)g(S)Tc(M)a(F)g(S)Ta(M)a(M)u(M)c(M)g(M)g(M)u(F)a(M)c(M)c(M)c(M)
# B7: aptamer No. 65 (mixed)
# mixed: B1 mixed
# modifications: g(M)g(M)g(M)u(M)a(M)g(S)c(M)c(M)Gg(M)a(F)gg(M)a(M)gTc(F)a(F)gTa(M)a(M)u(M)c(M)g(M)g(M)u(M)a(M)c(M)c(M)c(M)
# B8: aptamer No. 66 (mixed)
# mixed: B1 mixed
# modifications: g(M)g(M)g(M)u(M)a(M)g(S)c(M)c(M)Gg(M)a(F)gg(M)a(M)g(S)Tc(F)a(F)g(S)Ta(M)a(M)u(M)c(M)g(M)g(M)u(M)a(M)c(M)c(M)c(M)
# B9: aptamer No. 68 (mixed)
# RNA: B1 mixed with T16U, T20U
# modifications: g(M)g(M)g(M)u(M)a(M)g(S)c(M)c(M)Gg(M)a(F)gg(M)a(M)g(S)u(F)c(F)a(F)g(S)u(F)a(M)a(M)u(M)c(M)g(M)g(M)u(F)Ac(M)c(M)c(M)
# B10: aptamer No. 69 (mixed)
# RNA: B1 mixed with T16U, T20U
# modifications: g(M)g(M)g(M)u(M)a(M)g(S)c(M)c(M)Gg(M)a(F)gg(M)a(M)gu(F)c(F)a(F)gu(F)a(M)a(M)u(M)c(M)g(M)g(M)u(F)a(M)c(M)c(M)c(M)
# B11: aptamer No. 70 (mixed)
# RNA: B1 mixed with T16U, T20U
# modifications: g(M)g(M)g(M)u(M)a(M)g(S)c(M)c(M)Gg(M)a(F)gg(M)a(M)g(S)u(F)c(F)a(F)g(S)u(F)a(M)a(M)u(M)c(M)g(M)g(M)u(F)a(M)c(M)c(M)c(M)
# B12: aptamer No. 72 (mixed)
# RNA: B1 mixed with T16U, T20U
# modifications: g(M)g(M)g(M)u(M)a(M)g(S)c(M)c(M)Gg(M)a(F)gg(M)a(M)gu(F)c(F)a(F)gu(F)a(M)a(M)u(M)c(M)g(M)g(M)u(M)a(M)c(M)c(M)c(M)
# B13: aptamer No. 73 (mixed)
# RNA: B1 mixed with T16U, T20U
# modifications: g(M)g(M)g(M)u(M)a(M)g(S)c(M)c(M)Gg(M)a(F)gg(M)a(M)g(S)u(F)c(F)a(F)g(S)u(F)a(M)a(M)u(M)c(M)g(M)g(M)u(M)a(M)c(M)c(M)c(M)
# B14: aptamer No. 75 (mixed)
# mixed: B1 mixed
# modifications: g(M)g(M)g(M)u(M)a(M)gc(M)c(M)gg(M)a(F)gg(M)a(M)gTc(F)a(F)gTa(M)a(M)u(M)c(M)g(M)g(M)u(F)a(M)c(M)c(M)c(M)
# B15: aptamer No. 76 (mixed)
# RNA: B1 mixed with T16U, T20U
# modifications: g(M)g(M)g(M)u(M)a(M)gc(M)c(M)Gg(M)a(F)gg(M)a(M)gu(F)c(F)a(F)gu(F)a(M)a(M)u(M)c(M)g(M)g(M)u(F)Ac(M)c(M)c(M)
# B16: aptamer No. 77 (mixed)
# RNA: B1 mixed with T16U, T20U
# modifications: g(M)g(M)g(M)u(M)a(M)gc(M)c(M)gg(M)a(F)gg(M)a(M)gu(F)c(F)a(F)gu(F)a(M)a(M)u(M)c(M)g(M)g(M)u(F)Ac(M)c(M)c(M)
# B17: aptamer No. 78 (mixed)
# mixed: B1 mixed
# modifications: g(M)g(M)g(M)u(M)a(M)gc(M)c(M)Gg(M)a(F)gg(M)a(M)gTc(F)a(F)gTa(M)a(M)u(M)c(M)g(M)g(M)u(M)a(M)c(M)c(M)c(M)
# B18: aptamer No. 79 (ssRNA)
# RNA: B1 mixed with T16U, T20U
# modifications: g(M)g(M)g(M)u(M)a(M)gc(M)c(M)gg(M)a(F)gg(M)a(M)gu(F)c(F)a(F)gu(F)a(M)a(M)u(M)c(M)g(M)g(M)u(M)a(M)c(M)c(M)c(M)
# B19: aptamer No. 80 (mixed)
# RNA: B1 mixed with T16U, T20U
# modifications: g(M)g(M)g(M)u(M)a(M)g(S)c(M)c(M)Gg(M)a(F)gg(M)a(M)gu(F)c(F)a(F)gu(F)a(M)a(M)u(M)c(M)g(M)g(M)u(F)Ac(M)c(M)c(M)
# B20: aptamer No. 81 (mixed)
# mixed: B1 mixed
# modifications: g(M)g(M)g(M)u(M)a(M)g(S)c(M)c(M)Gg(M)a(M)gg(M)a(M)g(S)Tc(M)a(F)g(S)Ta(M)a(M)u(M)c(M)g(M)g(M)u(M)a(M)c(M)c(M)c(M)
# B21: aptamer No. 82 (mixed)
# mixed: B1 mixed
# modifications: g(M)g(M)g(M)u(M)a(M)g(S)c(M)c(M)Gg(M)a(M)gg(M)a(M)g(S)Tc(F)a(F)g(S)Ta(M)a(M)u(M)c(M)g(M)g(M)u(M)a(M)c(M)c(M)c(M)
# B22: aptamer No. 84 (mixed)
# RNA: B1 mixed with T16U, T20U
# modifications: g(M)g(M)g(M)u(M)a(M)g(S)c(M)c(M)Gg(M)a(M)gg(M)a(M)g(S)u(F)c(F)a(F)g(S)u(F)a(M)a(M)u(M)c(M)g(M)g(M)u(M)a(M)c(M)c(M)c(M)
# B23: aptamer No. 85 (mixed)
# RNA: B1 mixed with T16U, T20U
# modifications: g(M)g(M)g(M)u(M)a(M)g(S)c(M)c(M)Gg(M)a(M)gg(M)a(M)g(S)u(F)c(F)a(F)g(S)u(F)a(M)a(M)u(M)c(M)g(M)g(M)u(F)a(M)c(M)c(M)c(M)
# Biological target: T1, IL-17 (IL-17A)
# Experiment: cell_activity; IL-6 release, NIH3T3
# Settings: chain copies: 2
# Method: First, human IL-17 and the aptamer produced in Example 1-2 were pre-incubated at 37° C. for 30 min, and added to NIH3T3 cell (ATCC, CRL1658) together with mouse TNFα (2 ng/mL). Then, after incubation for 24 hr, the culture supernatant was collected, and the production amount of IL-6 was measured by ELISA method described below. The IL-17 inhibitory action of each aptamer was determined from the production amount of IL-6. For comparison with the aptamer of the present invention, a conventionally-known aptamer (aptamer No. 50) against IL-17 was used.
# ELISA method for verifying IL-17 inhibitory action of aptamer: A microtiter plate for ELISA was coated with rat anti-mouse IL-6 antibody (BD Biosciences, 2 μg/mL; 100 μL/well) diluted with PBS, and incubated at 4° C. overnight. The next day, the microtiter plate was washed 3 times with PBS/0.05% Tween 20, and applied blocking with PBS/1% BSA (200 μL/well) at room temperature for 2 hr. Then, the plate was washed 3 times with PBS/0.05% Tween 20. Recombinant mouse IL-6 (BD Biosciences; 100 μL/well) serially diluted with PBS/1% BSA/0.05% Tween 20 or culture supernatants (100 μL/well) were added to the plate. After incubation at room temperature for 2 hr, the plate was washed 3 times with PBS/0.05% Tween 20. Then, 100 μL/well of biotin conjugated rat anti-mouse IL-6 antibody (BD Biosciences) was added to the plate at final dilution of 1/500, and the mixture was reacted at room temperature for 1 hr. After washing 3 times with PBS/0.05% Tween 20, 100 μL/well of alkaline phosphatase conjugated streptavidin was added at final dilution of 1/1000. After 30 min at room temperature, the plate was again washed 4 times with PBS/0.05% Tween 20, and a substrate (1-Step PNPP; Thermo Fisher Scientific Inc; 100 μL/well) was added. After 15 min, aqueous sodium hydroxide solution (2N: 50 μL/well) was added to stop the reaction, and the plate was read on a microtiter reader (Bio-Rad) by using a 405 nm filter.
row,Binder,IC50 [nM]
1,B1,0.52
2,B2,1.19
3,B3,2.35
4,B4,0.69
5,B5,0.81
6,B6,4.64
7,B7,0.67
8,B8,1.21
9,B9,2.4
10,B10,1.73
11,B11,3.28
12,B12,2.24
13,B13,3.46
14,B14,1.33
15,B15,1.7
16,B16,4.66
17,B17,1.36
18,B18,2.25
19,B19,1.52
20,B20,2.26
21,B21,0.48
22,B22,1.04
23,B23,0.96
